{
  "source": "the DeepSol protein solubility set",
  "data": [
    {"assay": "soluble on expression in E. coli; label from the status in PepcDB or PDB records", "values": [
      {"sequence": "MSGEPELIELRELAPAGRAGKGRTRLERANALRIARGTACNPTRQLVPGRGHRFQPAGPATHTWCDLCGDFIWGVVRKGLQCARLSADCKFTCHYRCRALVCLDCCGPRDLGWEPAVERDTNVDEPVEWETPDLSQAEIEQKIKEYNAQINSNLFMSLNKDGSYTGFIKVQLKLVRPVSVPSSKKPPSLQDARRGPGRGTSVRRRTSFYLPKDAVKHLHVLSRTRAREVIEALLRKFLVVDDPRKFALFERAERHGQVYLRKLLDDEQPLRLRLLAGPSDKALSFVLKENDSGEVNWDAFSMPELHNFLRILQREEEEHLRQILQKYSYCRQKIQEALHACPLGLEHHHHHH", "soluble on expression in E. coli": "not soluble"},
      {"sequence": "MSGFSTEERAAPFSLEYRVFLKNEKGQYISPFHDIPIYADKDVFHMVVEVPRWSNAKMEIATKDPLNPIKQDVKKGKLRYVANLFPYKGYIWNYGAIPQTWEDPGHNDKHTGCCGDNDPIDVCEIGSKVCARGEIIGVKVLGILAMIDEGETDWKVIAINVDDPDAANYNDINDVKRLKPGYLEATVDWFRRYKVPDGKPENEFAFNAEFKDKDFAIDIIKSTHDHWKALVTKKTNGKGISCMNTTLSESPFKCDPDAARAIVDALPPPCESACTVPTDVDKWFHHQKN", "soluble on expression in E. coli": "soluble"},
      {"sequence": "MSGIAAGRLAEERKHWRKDHPFGFIAKPVKNADGTLNLFNWECAIPGRKDTIWEGGLYRIRMLFKDDFPSTPPKCKFEPPLFHPNVYPSGTVCLSLLDENKDWKPSISIKQLLIGIQDLLNHPNIEDPAQAEAYQIYCQNRAEYEKRVKKEAVKYAAELVQKQMLE", "soluble on expression in E. coli": "not soluble"},
      {"sequence": "MSGILALGAYVPERVMTNADFEAYLDTSDEWIVTRTGIKERRVAAEDEYTSDLAFKAVEDLLRRHPGALEGVDAVIVATNTPDALFPDTAALVQARFGLKAFAYDLLAGCPGWIYALAQAHALVEAGLAQKVLAVGAEALSKIIDWNDRATAVLFGDGGGAAVVGKVREGYGFRSFVLGADGTGAKELYHACVAPRLPDGTSMKNRLYMNGREVFKFAVRVMNTATLEAIEKAGLTPEDIRLFVPHQANLRIIDAARERLGLPWERVAVNVDRYGNTSTASIPLALKEALDAGRIREGDHVLLVSFGAGLTWAAAVLTWGGA", "soluble on expression in E. coli": "soluble"},
      {"sequence": "MSGLKPVKPEGVQSEFSVRVAKRSDDIRYSVMMFNGMDKVDTSKWTIDSGVTMEREDNQRVILSTQTVQEYGEGSEYGKAAREEARRKKYGRQSKKYRLDNQPWKMAFTEPEGRQRQMRGIREGGANEHADYWVFLKPNQSSEFKAYKVDEWHKFLPAITHKTLDIDQAEEQFSQRYKVMNQFALKAAIQNQLSATDESEMTEQQKRLLKIKDEASSDDSDGDDEGEGGDDGKKAKNKKKKKKNAKPAKEKRQRVEDKDDVAKYESSDGEDEGREYDYISDSGTDSDREQVPSDEKIEKQLVGVAEEEGARESDSSESEDDLTKKLMKPYGDKKKGNDIEERDSSGTDSDVSDTEKLDSVVFMKANKDGEGGSGGTGKKRPPTEDSDLKMDNLGPSDAKKAKPAVKFEEGLNEETVRRYLRRKPHTTKELLHKMNGKCGNMSKSEMVTQLASILKAIEPNQSRQLKGKKEVLFFSLVNTIA", "soluble on expression in E. coli": "not soluble"},
      {"sequence": "MSGNIGANPAIIKLSWIEAAVDAHKTLNFEPSGRKRIGFDVADSGTDKCANVYRHGSVVFWADEWKAKEDELLKSCQRTYQAALEREADIVYDSIGVGASAGAKFSEINADRKSENAYARRVNYQRFNAGAGVHEPDDEYNGIPNKDFFANLKAQAWWLTVSEIRLTPLTTENSILWMS", "soluble on expression in E. coli": "not soluble"},
      {"sequence": "MSGRLTGKVALVSGGARGMGASHVRAMVAEGAKVVFGDILDEEGKAMAAELADAARYVHLDVTQPAQWKAAVDTAVTAFGGLHVLVNNAGILNIGTIEDYALTEWQRILDVNLTGVFLGIRAVVKPMKEAGRGSIINISSIEGLAGTVACHGYTATKFAVRGLTKSTALELGPSGIRVNSIHPGLVKTPMTDWVPEDIFQTALGRAAEPVEVSNLVVYLASDESSYSTGAEFVVDGGTVAGLAHNDFGAVEVSSQPEWVT", "soluble on expression in E. coli": "soluble"},
      {"sequence": "MSHHHHHHSQGGPQDHVEIIPLGGMGEIGKNITVFRFRDEIFVLDGGLAFPEEGMPGVDLLIPRVDYLIEHRHKIKAWVLTHGHEDHIGGLPFLLPMIFGKESPVPIYGARLTLGLLRGKLEEFGLRPGAFNLKEISPDDRIQVGRYFTLDLFRMTHSIPDNSGVVIRTPIGTIVHTGDFKLDPTPIDGKVSHLAKVAQAGAEGVLLLIADATNAERPGYTPSEMEIAKELDRVIGRAPGRVFVTTFASHIHRIQSVIWAAEKYGRKVAMEGRSMLKFSRIALELGYLKVKDRLYTLEEVKDLPDHQVLILATGSQGQPMSVLHRLAFEGHAKMAIKPGDTVILSSSPIPGNEEAVNRVINRLYALGAYVLYPPTYKVHASGHASQEELKLILNLTTPRFFLPWHGEVRHQMNFKWLAESMSRPPEKTLIGENGAVYRLTRETFEKVGEVPHGVLYVDGLGVGDITEEILADRRHMAEEGLVVITALAGEDPVVEVVSRGFVKAGERLLGEVRRMALEALKNGVREKKPLERIRDDIYYPVKKFLKKATGRDPMILPVVIEG", "soluble on expression in E. coli": "soluble"},
      {"sequence": "MSHHRSAFFISDRTGITAESLGHTLLTQFDALDFQRETVPFVDTVEKARALAERISEIAERDHLRPLVFTSIVNPEVREALRLNNVVLIDFFESFIGHLEIELGQKATLTVGKAHGMVNEEKYDHRIEAVNFSLNHDDGVKLKDLHEADVILVGVSRSGKTPTCLYLALQYGIRAANYPLTPEDLGSPTLPKMLLPFKDKMFGLTIDPNRLHHIRSERRPDSKYASMDNCRREVNEAESMFRHHGVPFISTTHKSIEEIASTIMHKAALGRKFLEHHHHHH", "soluble on expression in E. coli": "soluble"},
      {"sequence": "MSHSVPNALMTGADYLDSLRDGRQVYLNGERVADVTRHRAFRNACRSIAGLYDGLHGEQRDVLTRVDAQGRRSHRFFTPAQNAEDLLGAREAIGCWSRMTYGFMGRTPDYKAAFMSGLEAGAGFYGDYRHNACAWHRAFADRGLFLNHAIINPPLDRSKAIHEMRDVFVHVERETDQGIVVSGAKMLATGSAITNATFVAPVASAQMEAGKAEDFAVVFFARMDNPGLRLMCRPSYEERASSPFDYPLSSRFDENDSVLLFDKALIPWEDVLVYRDLRRATGFYAESGFANLYNFQSGIRLGVKLELMIGLLSLGVRANGTQSFRGIQAALGELIALQHLLQALTTAMARDPERNAAGSAVPRLEYANALRIQVPQIWKRVRELLESALGGAPLVTVSGAADLRDGEARRLVDSYYRGAELEPEQRLKLFKLIWDATGSEFGARHAVYESHYSGNAEQIRLDSLAWASRRGHLAYCEAMVQRCMADYDIHGWLRGPWQHD", "soluble on expression in E. coli": "not soluble"},
      {"sequence": "MSIAIKDDDEFKTIFAEKKTQPVILFFTASWCGPCQMIKPRVEELAAEHKDRLSILKIDVDECDGVGEEYEINSMPTFLLIVDGIKKDQFSGANNTKFEEMVKAALQ", "soluble on expression in E. coli": "not soluble"},
      {"sequence": "MSILEKIFKTRKDITYMLDLDMIEDLSQQAYVKRLAIDSCIEFVARAVAQSHFKVLEGNRIQKNDVYYKLNIKPNTDLSSDSFWQQVIYKLIYDNEVLIVVSDSKELLIADSFYREEYALYDDIFKDVTVKDYTYQRTFTMQEVIYLKYNNNKVTHFVESLFEDYGKIFGRMIGAQLKNYQIRGILKSASSAYDEKNIEKLQAFTNKLFNTFNKNQLAIAPLIEGFDYEELSNGGKNSNMPFSELSELMRDAIKNVALMIGIPPGLIYGETADLEKNTLVFEKFCLTPLLKKIQNELNAKLITQSMYLKDTRIEIVGVNKKDPLQYAEAIDKLVSSGSFTRNEVRIMLGEEPSDNPELDEYLITKNYEKANSGENDEKEKDENTLKGGDEDESGD", "soluble on expression in E. coli": "not soluble"},
      {"sequence": "MSILHMPLKIKDITIKNRIMMSPMCMYSASTDGMPNDWHIVHYATRAIGGVGLIMQEATAVESRGRITDHDLGIWNDEQVKELKKIVDICKANGAVMGIQLAHAGRKCNISYEDVVGPSPIKAGDRYKLPRELSVEEIKSIVKAFGEAAKRANLAGYDVVEIHAAHGYLIHEFLSPLSNKRKDEYGNSIENRARFLIEVIDEVRKNWPENKPIFVRVSADDYMEGGINIDMMVEYINMIKDKVDLIDVSSGGLLNVDINLYPGYQVKYAETIKKRCNIKTSAVGLITTQELAEEILSNERADLVALGRELLRNPYWVLHTYTSKEDWPKQYERAFKKHHHHHH", "soluble on expression in E. coli": "soluble"},
      {"sequence": "MSIRLAQVTDIPVLKELLNQIFQVHQTVRPDLFKNTDKGSKYSETELKELLQDESKPIFVYTDGKNRVLGHLFLVIKETKGSSVSKPLKTLFIDDLCVSKEARGQKIGQELFEFALKYAKKLGCYDLTLNVWNDNKGALAFYERQGLKARETKMEKILLEHHHHHH", "soluble on expression in E. coli": "soluble"},
      {"sequence": "MSISWGAQYPKLKTNLRLGINRLQLLGKKKTEMAMKARTEIADYIAANKPDRARIRVEHIIREDYVVEAFEILEMYCDLLLARFGLIEQMKTLDDGIAEAVISIMWAAPRLATDIAEFKTISDQLTIKYGKPFAEAARANQLEFPARVNPKIISKLGAAAPPKLLVERYMIEIAAAAGVPFVPDPDVMREDEVHQAEQILIDFKNAGGNGPSGPDGPPPPPSNPYGGSGNDNGSSGGGGGYGWNLENQSAIGSGVMPHGTAIGGGVQPVSNFIPPPPNRHPNEPPQDDENIYDHIPDVSGGNIYEVPSRDHYDFPPDAFNEEPPKTNPTTGVINLPKIGPNGLPIYPGQQQPKGPGGAQAYPALSQRNSLVNPNLQPNHPTAPPQSLRKPDDFSDLSFPEPPSSFVGGNNKPGGPGGNNGGGAGNGGFDDFDDLARRFEELKKIK", "soluble on expression in E. coli": "not soluble"},
      {"sequence": "MSIVSLAKQSGLSVSSISAYENNKRQPKIESLQKISKVLGVSSAYLNGMSEEKNILNVNSQSLKNNTIDIDVIGFLLNVRSTYPGKVPIFIQDVLAGAPIYIDDNGNKLDAKKRKLLITFLKTLLN", "soluble on expression in E. coli": "not soluble"},
      {"sequence": "MSIYSKILVVADINHDEQPALARAMQLAQKSTSVSHITFFLSIYDFSYDMTSMLSLEERDAMRKGVIHQREQWMRSIAEPYLDKSVQFDIKVVWHNRPYEAIIGEIFAGEHDILIKATRKHDMLESVIFTPTDWHLMRKCPTPVLLVKNADWPENANIIASVHVGSELDTHIDLNDRMVEQLLNLSKRLGASPYLVNAYPVTPANITIELPEFDPTTYTDAVRGHHLTAMKALRQKHGLSEEQTLVQQGLPEDVIPEAAKQLNAAMVILGTTGRTGLSAVFIGNTAEHVIDKINCDVLALKPNGYVSPLDPQTAI", "soluble on expression in E. coli": "not soluble"},
      {"sequence": "MSKAKAPINTDELKQKYGRVYEIRIEGLEYENGEEAEFVFYFTRPKVSDISRFTKELNSKPDMAMKNLTFSCIVPEQEEELRQAAEEFPGLTFNTASRLMEIVGASAATSLKKL", "soluble on expression in E. coli": "soluble"},
      {"sequence": "MSKEGDILKPEEETMEFPEGDKVKVILSKEDFEASLKEAGERLVAVDFSATWCGPCRTIRPFFHALSVKHEDVVFLEVDADNCEEVVRECAIMCVPTFQFYKKEEKVDELCGALKEKLEAVIAELK", "soluble on expression in E. coli": "soluble"},
      {"sequence": "MSKFNRIHLVVLDSVGIGAAPDADKFFNAGVADTDSDTLGHISEAAGLSVPNMAKIGLGNISRPIPLKTVPTEDNPTGYVTKLEEVSLGKDTMTGHWEIMGLNITEPFDTFWNGFPEEILTKIEEFSGRKIIREANKPYSGTAVIDDFGPRQMETGELIVYTSADPVLQIAAHEDIIPVEELYKICEYARSITLERPALLGRIIARPYVGDPGNFTRTANRHDYAVSPFQDTVLNKLADAGVPTYAVGKINDIFNGSGITNDMGHNKSNSHGIDTLIKTLQLPEFTKGFSFTNLVDFDANFGHRRDPEGYRDCLHEFDNRLPEIIANMKEDDLLLITADHGNDPTYAGTDHTREYIPLLAYSVSFTGNGLIPQGHFADISATVAENFGVDTAMIGESFLSHLK", "soluble on expression in E. coli": "not soluble"},
      {"sequence": "MSKHKVSPATIAKNKKALHDYTILEKFEAGIVLQGWEVKSIRAGKVQMVDSHVHIKHGEAWLFNCLITPLLSASTHVVADAAATRKLLLNRREINKIMGRIEQKGFTCIPLSMYWKGPRVKVEIALAQGKKVHDKRQAQKDKDWAREKDRLFKKAYK", "soluble on expression in E. coli": "not soluble"}
    ]}
  ]
}
